Data taken from article PMC5818551.
Several values for one entry are separate records, joined by “and”; a condition that tells them apart may be missing. Equal entries are not always repeated.

What was measured:
[1] = biological target: gephyrin E-domain (GephE); assay: ITC
[2] = biological target: full-length gephyrin rC4; assay: ITC
[3] = biological target: full-length gephyrin rC4
[4] = biological target: full-length gephyrin rC4; assay: cross-linking; EDC cross-linking of purified full-length gephyrin and βL-wt, 6% SDS-PAGE with Coomassie staining, trimer band extracted, tryptic digestion and LC-MS/MS peptide mass fingerprinting
[5] = biological target: gephyrin E-domain (GephE); assay: not stated; data not shown; physiologic salt concentrations and pH 7.4-8.0

Substance | dH [2] [kcal/mol] | Deff of extrasynaptic trajectories above the threshold of 0.02 µm^2/s (sptPALM, rat spinal cord neurons), Q1/Q2/Q3; value: the median Q2 [3] [µm^2 · s^−1] | Deff of synaptic trajectories above the threshold of 0.02 µm^2/s (sptPALM, rat spinal cord neurons), Q1/Q2/Q3; value: the median Q2 [3] [µm^2 · s^−1] | explored area of extrasynaptic trajectories above the threshold of 0.02 µm^2/s (sptPALM, rat spinal cord neurons), Q1/Q2/Q3; value: the median Q2 [3] [µm^2] | explored area of synaptic trajectories above the threshold of 0.02 µm^2/s (sptPALM, rat spinal cord neurons), Q1/Q2/Q3; value: the median Q2 [3] [µm^2] | other results
GlyR β-loop wild type, residues 378-426 of the GlyRβ subunit (from UniProt P20781 400-448) (peptide) | – | – | – | – | – | dH [1]: -16.1 kcal/mol
GlyR β-loop βL-HI, residues 394-426 (from UniProt P20781 416-448) (peptide) | -21.5 | – | – | – | – | –
GlyR β-loop βL-LO, residues 378-413 (from UniProt P20781 400-435) (peptide) | -11.8 | – | – | – | – | –
GlyRβ-D407P/F408G: mEos4b-tagged full-length human GlyRβ with D407P and F408G (from UniProt P48167-1 23-497) (receptor) | – | 0.09 | 0.04 | 0.00152 | 0.00086 | –
GlyRβ-HI: mEos4b-tagged full-length human GlyRβ with deletion ΔV378-L393 (from UniProt P48167-1 23-497) (receptor) | – | 0.05 | 0.04 | 0.00096 | 0.00077 | –
GlyRβ-geph^-: mEos4b-tagged full-length human GlyRβ with F398A/I400A (from UniProt P48167-1 23-497) (receptor) | – | 0.11 | 0.09 | 0.00183 | 0.00151 | –
core βL peptide, residues 394-413 (from UniProt P20781 416-435) | -11 | – | – | – | – | –
full-length gephyrin rC4 (natural protein) | – | – | – | – | – | stoichiometry N [4]: 2 and 3
gephyrin E-domain (GephE) (domain or fragment) | – | – | – | – | – | stoichiometry N [5]: 2
mEos4b-tagged full-length human GlyRβ subunit, wild type (from UniProt P48167-1 23-497) (receptor) | – | 0.05 | 0.04 | 0.00091 | 0.00073 | –
